Data: patent publication US20180312588A1 (KITE PHARMA, published 2018)
Residue numbers refer to the chain shown, from its start.

B1: NS-scFv (scFv)
scFv: DIQMTQSPSSLSASVGDRVTITCRASQDISKYLNWYQQKPGKAVKLLIYHTSRLHSGVPSRFSGSGSGTDYTLTISSLQPEDIATYFCQQGNTLPYTFGGGTKLEIKGSTSGSGKPGSGEGSTKGQVQLQESGPGLVKPSETLSVTCTVSGVSLPDYGVSWIRQPPGKGLEWLGVIWGSETTYYNSALKSRLTISKDTSKNQVFLKMSSLTAADTAIYYCAKHYYYGGSYAMDYWGQGTLVTVSSHHHHHH
notes: leader left out here
B2: SS-scFv (scFv)
scFv: DIQMTQSPSFLSASVGDRVTITCRASQDISKYLNWYQQKPDQAPKLLIKHTSRLHSGVPSRFSGSGSGTDFTFTISSLQPEDIATYYCQQGNTLPYTFGQGTKLEIKGSTSGSGKPGSGEGSTKGEVQLVESGGGLVQPGRSLRLSCTASGVSLPDYGVSWVRQPPGKGLEWIGVIWGSETTYYNSALKSRFTISRDNSKNTLYLQMNSLRAEDTAVYYCAKHYYYGGSYAMDYWGQGTLVTVSSHHHHHH
notes: leader left out here
B3: JS-scFv (scFv)
scFv: B2 scFv with F10S, F71Y, F73L, I83F, V162I
notes: leader left out here
B4: AS-scFv (scFv)
scFv: DIQMTQSPSTLSASVGDRVTITCRASQDISKYLNWYQQKPDQAPKLLIKHTSRLHSGVPSRFSGSGSGTDFTFTISSLQPEDIATYYCQQGNTLPYTFGQGTKLEIKGSTSGSGKPGSGEGSTKGQVQLQESGPGLVKPSGTLSLTCAVSGVSLPDYGVSWIRQPPGKGLEWIGVIWGSETTYYNSALKSRVTISRDNSKNTLYLQMNSLRAEDTAVYYCAKHYYYGGSYAMDYWGQGTLVTVSSHHHHHH
notes: leader left out here

Key:
[1] = biological target: T1, human CD19 (on Raji cells, CD19+ homo sapiens Burkitt's lymphoma) (human, UniProt P15391 20-556); experiment: flow cytometry titration on Raji cells, anti-His FITC; scFv at log(nM) 0.137273
T1 construct: whole, on cells; also called B-lymphocyte antigen CD19; B4
T1 sequence (looked up): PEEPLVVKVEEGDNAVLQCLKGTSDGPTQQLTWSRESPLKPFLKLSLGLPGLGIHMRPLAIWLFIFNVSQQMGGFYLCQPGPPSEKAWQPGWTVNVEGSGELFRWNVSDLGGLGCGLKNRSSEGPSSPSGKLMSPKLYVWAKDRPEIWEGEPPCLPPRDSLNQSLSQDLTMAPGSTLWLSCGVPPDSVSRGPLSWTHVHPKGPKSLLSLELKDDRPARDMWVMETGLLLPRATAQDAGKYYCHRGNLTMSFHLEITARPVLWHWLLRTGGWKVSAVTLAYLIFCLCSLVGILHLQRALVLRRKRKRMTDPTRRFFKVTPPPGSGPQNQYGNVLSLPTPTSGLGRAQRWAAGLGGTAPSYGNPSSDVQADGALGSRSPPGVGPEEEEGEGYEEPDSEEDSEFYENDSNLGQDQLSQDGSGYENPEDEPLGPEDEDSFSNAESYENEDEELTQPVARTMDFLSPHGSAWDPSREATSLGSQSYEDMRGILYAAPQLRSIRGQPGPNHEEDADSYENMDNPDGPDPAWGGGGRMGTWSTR
Procedure: (§1) In brief, Raji cells were cultured and harvested by centrifugation. About 3×10⁵ cells per well were washed with PBS twice and incubated in 200 μl of serial dilutions of scFvs for 30 minutes at 4° C. After washing with PBS, secondary antibody (5 μg/ml His Tag antibody [FITC]) was added to the cells and incubated for 30 minutes at 4° C. After washing with PBS, cells were analyzed for binding EC50 by using FACSCalibur™ and FlowJo software.

[2] = biological target: T1, human CD19 (on Raji cells, CD19+ homo …); experiment: flow cytometry titration on Raji cells, anti-His FITC; scFv at log(nM) 3.477121
Procedure: as §1

[3] = biological target: T1, human CD19 (on Raji cells, CD19+ homo …); experiment: flow cytometry titration on Raji cells, anti-His FITC; scFv at log(nM) 0.614394
Procedure: as §1

[4] = biological target: T1, human CD19 (on Raji cells, CD19+ homo …); experiment: flow cytometry titration on Raji cells, anti-His FITC; scFv at log(nM) 1.091515
Procedure: as §1

[5] = biological target: T1, human CD19 (on Raji cells, CD19+ homo …); experiment: flow cytometry titration on Raji cells, anti-His FITC; scFv at log(nM) 2.522879
Procedure: as §1

[6] = biological target: T1, human CD19 (on Raji cells, CD19+ homo …); experiment: flow cytometry titration on Raji cells, anti-His FITC
Procedure: as §1

[7] = biological target: T1, human CD19 (on Raji cells, CD19+ homo …); experiment: flow cytometry titration on Raji cells, anti-His FITC; scFv at log(nM) 3
Procedure: as §1

[8] = biological target: T1, human CD19 (on Raji cells, CD19+ homo …); experiment: flow cytometry titration on Raji cells, anti-His FITC; scFv at log(nM) 1.568636
Procedure: as §1

[9] = biological target: T1, human CD19 (on Raji cells, CD19+ homo …); experiment: flow cytometry titration on Raji cells, anti-His FITC; scFv at log(nM) 2.045758
Procedure: as §1

Row | Binder | geometric mean (FACS titration) [1] | geometric mean (FACS titration) [2] | geometric mean (FACS titration) [3] | geometric mean (FACS titration) [4] | geometric mean (FACS titration) [5] | EC50 [6] [nM] | geometric mean (FACS titration) [7] | geometric mean (FACS titration) [8] | geometric mean (FACS titration) [9]
1 | B1 | 15.7 | 60.7 | 15.5 | 15.1 | 61.6 | 34 | 61.9 | 41.2 | 56.3
2 | B2 | 13.9 | 62 | 13.9 | 14.6 | 60.4 | 72.8 | 61.7 | 19.3 | 51.4
3 | B3 | 13.4 | 60.2 | 13.3 | 13.6 | 58.9 | 66 | 59.7 | 25.7 | 46.6
4 | B4 | 14.2 | 62.7 | 14 | 14.5 | 63.9 | 53.1 | 62.4 | 19.4 | 62.4
